Test results taken from the supplement of paper PMC10126150.
± gives the standard deviation of the averaged measurements.

test system: ATP; assay: switch fluorescence ratio, 500 uM ATP over buffer (Cy3 cluster intensity, sum of 5 cycles each) (fold (ratio)); higher = stronger signal-on switching upon ATP binding; sequences stand for … in TCGTCGGCAGCGTCAGATGTGTATAAGAGACAGTTTTTTTTTTTTTTTTTTTTTTTTT…TC; conditions: aptamer strand: ATP DNA aptamer (quencher-CACCTGGGGGAGTATTGCGGAGGAAGG + anchor), 100 nM annealed; ATP concentration: 500 uM
In short: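 Between each of five buffer/ATP cycles, the flow-cell was stripped with NaOH and re-annealed. Each cycle imaged Cy3-labelled switching-strand clusters, annealed to 100 nM quencher-labelled ATP aptamer on a modified Illumina MiSeq flow-cell, first in selection buffer and then after 15 min with 500 uM ATP at 22 °C. The fluorescence ratio is summed target-cycle over summed buffer-cycle Cy3 intensity per cluster, averaged per switch-domain sequence, with clusters outside 100-1000 RFU excluded.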
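Also: ATP exposure 15 min at 22 °C before imaging.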

Sequence	switch fluorescence ratio
TTAATTCCAG	1.01 ± 0.029
TTAATTGTTT	0.989 ± 0.018
TTAATTTATG	0.976 ± 0.035
TTAATTTTCC	1.46 ± 0.49
TTACAACGTA	1 ± 0.013
TTACAAGGAC	1.049 ± 0.0089
TTACACTTGT	1 ± 0.032
TTACAGCCTG	1 ± 0.04
TTACAGGGAG	1.02 ± 0.01
TTACAGTCGT	1.03 ± 0.022
TTACATGAAT	1.04 ± 0.033
TTACATGTCC	1.039 ± 0.0089
TTACATTTTA	1.02 ± 0.015
TTACCACAGC	1.05 ± 0.041
TTACCAGATT	0.982 ± 0.033
TTACCATCCT	1.19 ± 0.029
TTACCCAGAG	1.1 ± 0.064
TTACCCTGGG	1.07 ± 0.074
TTACCGACGG	1.1 ± 0.069
TTACCTCCGT	2.19 ± 0.14
TTACCTTTGT	1.05 ± 0.024
TTACGAGGCG	1.004 ± 0.0032
TTACGCGAAA	2.57 ± 2.1
TTACGGAGGG	1.02 ± 0.038
TTACGGCTGC	1.03 ± 0.058

Sequence	switch fluorescence ratio
TTACGGGCAC	1.18 ± 0.012
TTACGGGGGT	1.017 ± 0.01
TTACGGGGTT	0.988 ± 0.035
TTACGGTGAC	1.17 ± 0.059
TTACGGTTTT	1.01 ± 0.023
TTACGTGTGA	1.05 ± 0.073
TTACGTTCTT	1.048 ± 0.0096
TTACTACGTA	1.04 ± 0.059
TTACTCGGGA	1.04 ± 0.012
TTACTCGGGC	0.999 ± 0.019
TTACTCTTCT	0.972 ± 0.04
TTACTGAAAA	1.04 ± 0.025
TTACTGAACT	1.19 ± 0.025
TTACTGGGGA	1.04 ± 0.011
TTACTTATCT	1.02 ± 0.033
TTACTTCGTA	1.06 ± 0.07
TTACTTTGGG	0.9892 ± 0.0065
TTACTTTTGT	1.021 ± 0.0039
TTAGAAAGTT	1.03 ± 0.091
TTAGAAATAT	1.01 ± 0.016
TTAGAAATTT	1.01 ± 0.02
TTAGAATTAG	1 ± 0.017
TTAGACAAGG	0.95377 ± 0.00078
TTAGACACAA	1.01 ± 0.046
TTAGACTCTG	1.05 ± 0.071

Sequence	switch fluorescence ratio
TTAGACTTTT	1.03 ± 0.012
TTAGAGAGCG	1.018 ± 0.0096
TTAGAGTATA	1 ± 0.00038
TTAGAGTGCA	1.02 ± 0.019
TTAGATATTT	0.98 ± 0.024
TTAGATCGCC	0.969 ± 0.027
TTAGATCGGG	0.989 ± 0.011
TTAGATGAAT	1 ± 0.033
TTAGCACGTC	1.076 ± 0.0074
TTAGCCCATG	1.03 ± 0.029
TTAGCGAAGG	1.003 ± 0.0046
TTAGCGCTTT	0.9853 ± 0.0082
TTAGCGGCTG	0.9585 ± 0.0026
TTAGCGGGAT	1.01 ± 0.044
TTAGCGTGGG	0.99 ± 0.023
TTAGCGTTGT	0.96 ± 0.028
TTAGCTGGTG	1.07 ± 0.067
TTAGCTGTGC	1.02 ± 0.067
TTAGCTGTTT	0.995 ± 0.035
TTAGCTTGGT	0.999 ± 0.043
TTAGCTTGTA	1.07 ± 0.088
TTAGCTTTTT	1.01 ± 0.054
TTAGGAATTT	1.05 ± 0.075
TTAGGACGAT	0.997 ± 0.051
TTAGGAGAGC	0.979 ± 0.014

Sequence	switch fluorescence ratio
TTAGGAGATG	0.9802 ± 0.0059
TTAGGAGGGA	0.9949 ± 0.0064
TTAGGATAAT	1.031 ± 0.0072
TTAGGCCGGC	0.988 ± 0.11
TTAGGCGAGG	1.08 ± 0.16
TTAGGCGGCA	0.974 ± 0.034
TTAGGCGGGA	0.995 ± 0.046
TTAGGCTACT	1.01 ± 0.035
TTAGGGAAGG	0.993 ± 0.02
TTAGGGAATG	1 ± 0.07
TTAGGGACAG	0.987 ± 0.027
TTAGGGACGC	1.08 ± 0.025
TTAGGGAGGG	0.998 ± 0.032
TTAGGGCCTA	0.9844 ± 0.0097
TTAGGGGATG	1.026 ± 0.0098
TTAGGGGCGA	0.994 ± 0.012
TTAGGGGGAA	1.01 ± 0.025
TTAGGGGGG	1.01 ± 0.026
TTAGGGGGTT	1.04 ± 0.062
TTAGGGTAGG	0.97 ± 0.039
TTAGGGTATG	1.03 ± 0.029
TTAGGGTGAT	0.974 ± 0.059
TTAGGGTGTT	1 ± 0.07
TTAGGGTTCC	0.992 ± 0.035
TTAGGTAGGG	0.988 ± 0.028

Sequence	switch fluorescence ratio
TTAGGTCATG	0.9877 ± 0.0034
TTAGGTCTTC	1.02 ± 0.014
TTAGGTGCAA	1.17 ± 0.11
TTAGGTTTTT	1.08 ± 0.19
TTAGTAAAAT	1.01 ± 0.017
TTAGTAAACA	1.01 ± 0.049
TTAGTAAGGA	1.009 ± 0.0086
TTAGTAAGGT	1.01 ± 0.059
TTAGTACGAT	1.018 ± 0.0096
TTAGTATGAC	1.02 ± 0.042
TTAGTCACGC	1.029 ± 0.0092
TTAGTCAGGA	1.04 ± 0.057
TTAGTGCGGA	0.994 ± 0.012
TTAGTGGGGC	1.03 ± 0.041
TTAGTTGAAT	0.985 ± 0.04
TTATAAAACC	1.02 ± 0.028
TTATAAAGGT	1.03 ± 0.079
TTATAACTCG	0.995 ± 0.035
TTATAAGAGT	0.987 ± 0.025
TTATAAGCAG	1.02 ± 0.017
TTATAAGGGG	0.979 ± 0.04
TTATAAGTAT	1 ± 0.031
TTATAATGGG	0.988 ± 0.025
TTATACCGTT	0.999 ± 0.01
TTATACGGTT	1.01 ± 0.012

Sequence	switch fluorescence ratio
TTATAGAAGA	1.01 ± 0.0082
TTATAGATGT	0.992 ± 0.027
TTATAGCACC	1.06 ± 0.021
TTATAGGCGC	1.03 ± 0.029
TTATAGTTGA	0.9944 ± 0.0015
TTATAGTTTC	1.03 ± 0.057
TTATATAAGT	1.02 ± 0.023
TTATATCCGT	1.01 ± 0.031
TTATATGAGG	0.962 ± 0.045
TTATATGGGA	1.01 ± 0.018
TTATATGTTG	1.02 ± 0.026
TTATATTAG	0.9817 ± 0.001
TTATATTAGA	0.971 ± 0.0099
TTATATTCCT	1.11 ± 0.048
TTATATTGTT	0.984 ± 0.017
TTATCAAGGG	0.975 ± 0.025
TTATCCAATT	0.9804 ± 0.0089
TTATCCGGCG	0.986 ± 0.056
TTATCCTGGG	1.01 ± 0.023
TTATCGAGGA	0.973 ± 0.021
TTATCGTATT	0.9872 ± 0.0053
TTATCGTGTT	0.984 ± 0.042
TTATCTGTTG	1 ± 0.058
TTATGAAATG	1 ± 0.025
TTATGACAAC	1.015 ± 0.0044

Sequence	switch fluorescence ratio
TTATGACCAG	1.009 ± 0.0095
TTATGAGCAA	1.8 ± 0.096
TTATGAGCGG	1.02 ± 0.048
TTATGAGGTT	1.02 ± 0.026
TTATGCAGGG	1.01 ± 0.012
TTATGCATGT	1.02 ± 0.038
TTATGCGGTG	1.0223 ± 0.00072
TTATGCTAAA	0.994 ± 0.04
TTATGGAAGA	0.98 ± 0.026
TTATGGCTGA	0.988 ± 0.017
TTATGGCTTT	0.985 ± 0.018
TTATGGGCAA	1.1 ± 0.02
TTATGGGCTT	1.27 ± 0.42
TTATGGGGAG	1.005 ± 0.0034
TTATGGGGGT	1.01 ± 0.03
TTATGGGGTT	0.999 ± 0.043
TTATGGTAAC	1.04 ± 0.018
TTATGGTGAA	0.956 ± 0.049
TTATGGTTGG	0.995 ± 0.012
TTATGTCAGA	0.987 ± 0.034
TTATGTGACG	0.994 ± 0.082
TTATGTGGGG	0.993 ± 0.033
TTATGTTTCT	0.972 ± 0.026
TTATTACT	0.981 ± 0.011
TTATTAGTAT	1.02 ± 0.016

Sequence	switch fluorescence ratio
TTATTCCATA	0.98429 ± 0.00091
TTATTCCGGT	1.006 ± 0.0024
TTATTCGATT	0.982 ± 0.019
TTATTCGGCA	1.005 ± 0.0036
TTATTCTTTT	1 ± 0.026
TTATTGATCT	1 ± 0.065
TTATTGCGGA	0.994 ± 0.022
TTATTGCTCG	0.989 ± 0.021
TTATTGGGCT	1.01 ± 0.013
TTATTGGGTG	1.04 ± 0.024
TTATTGTAAG	0.9675 ± 0.006
TTATTGTGTA	0.979 ± 0.025
TTATTTAGCG	1.03 ± 0.029
TTATTTAGTT	1.01 ± 0.017
TTATTTCCAC	0.986 ± 0.013
TTATTTCGTG	0.998 ± 0.03
TTATTTCTTG	0.994 ± 0.046
TTATTTGATA	1 ± 0.034
TTATTTGCGC	1.024 ± 0.0036
TTATTTTATG	0.994 ± 0.027
TTATTTTTCG	1.02 ± 0.018
TTATTTTTGG	0.989 ± 0.027
TTCAAAAAAA	0.97 ± 0.026
TTCAAAACGT	1.04 ± 0.017
TTCAAAATTT	0.982 ± 0.015
